This is an account of results in patent US20230094463A1, “ANTIBODIES THAT DISRUPT THE INTERACTION OF GAL3 AND INSULIN RECEPTOR OR INTEGRINS AND METHODS OF USE THEREOF” (TrueBinding, Inc., priority 2019, published 2023).

For experiment [1], the target named is T1, Gal3 peptides (SEQ ID NOs: 3-26) (Homo sapiens, UniProt P17931).
T1 construct: a library of 24 amino acid peptides representing portions of Gal3; purchased LifeTein custom order
In words: Gal3 peptide library binding ELISA (epitope mapping). The conditions noted are these: for binding to Gal3 Peptide 6: Peptide 6 (SEQ ID NO: 8), amino acids 51-70 of Gal3; for binding to Gal3 Peptide 1: Peptide 1 (SEQ ID NO: 3), amino acids 1-20 of Gal3; for binding to Gal3 Peptide 7: Peptide 7 (SEQ ID NO: 9), amino acids 61-80 of Gal3. The procedure:
(§1) To identify the epitopes to which Gal3 antibodies with and without Gal3-INSR blocking activity bound, a library of 24 amino acid peptides representing portions of Gal3, depicted in FIG. 27, was produced and the ability of each peptide to bind Gal3 antibodies was evaluated by ELISA. At least 2 μg/ml of hGal3 peptide in 50 μl of PBS or 0.1 μg/ml of full-length human Gal3 protein (GenScript) and human Galectin-3 protein (Acro Biosystems, GA3-H5129) were diluted in PBS (Corning, 21-030-CM) to concentrations of at least 2 μg/ml or 0.1 μg/ml, respectively, and added to the wells of a 96-well ELISA plate (Thermo Fisher, 44-2404-21). After incubating the plate at 4° C. overnight, the plate was washed three times with PBST (PBS with 0.05% Tween 20 [VWR, 0777]). The plate was then blocked for an hour with 2% BSA (EMD Millipore, 126609) in PBST at room temperature with gentle rocking. Thereafter, the 2% BSA in PBST was discarded and human Galectin-3 hybridoma supernatants or antibodies were diluted in 2% BSA in PBST to concentrations of at least 0.1 μg/ml and added to the wells. The plate was incubated for an hour at room temperature with gentle rocking and then washed three times with PBST. Afterwards, Goat Anti-Mouse IgG-HRP (Jackson ImmunoResearch, 115-036-1461) or Goat Anti-Rat IgG HRP (Abcam, ab205720) diluted in 2% BSA in PBST (1:4000) were added to the wells. The plate was incubated for 30 minutes to 1 hour at room temperature with gentle rocking and then washed three times with PBST. TMB substrate (Thermo Scientific, 34029) was then added to each well. The reaction was stopped with 1M HCl (JT Baker, 5620-02) and read using a plate reader (Molecular Devices) at absorbance of 450 nm.
(§2) Human Gal3 peptides (LifeTein, custom order) and human Gal3 proteins (R&D Systems, 8259-GA; TrueBinding, QCB200349) were diluted in PBS (Corning, 21-030-CM) to concentrations of at least 100 μg/mL (peptides) or 1 μg/mL (proteins), and added to the wells of several 96-well ELISA plates (Thermo Fisher, 44-2404-21). After incubating the plates at 4° C. overnight, the plates were washed three times with PBST (PBS with 0.05% Tween 20 [VWR, 0777]). The plates were then blocked for an hour with 2% BSA (EMD Millipore, 126609) in PBST at room temperature with gentle rocking. Thereafter, the 2% BSA in PBST was discarded and Gal3-binding antibodies (reformatted hIgG4 [S228P]) were diluted in 2% BSA in PBST to concentrations of 5 μg/mL and added to the wells. The plates were incubated for an hour at room temperature with gentle rocking and then washed three times with PBST. Afterwards, Peroxidase AffiniPure F(ab′)2 Fragment Goat Anti-Human IgG (H+L) polyclonal antibody (Jackson ImmunoResearch, 109-036-003), was diluted in 2% BSA in PBST (1:4000) and added to the wells. The plates were incubated for 1 hour at room temperature with gentle rocking and then washed three times with PBST. TMB substrate (Thermo Scientific, 34029) was then added to each well. The reaction was stopped with 1M HCl (JT Baker, 5620-02) and read using a plate reader (Molecular Devices) at absorbance of 450 nm.
Background: In an ELISA, binding on a coated surface is turned into a signal by an enzyme label.

The subject of experiment [2] is Gal3 peptides (SEQ ID NOs: 3-26). The description is as above. Set-up: species or system human. The procedure: as §1, §2
For a further experiment, the target named is T2, human Gal3 (Homo sapiens, UniProt P17931).
T2 construct: His; purchased AcroBio GA3-H5129
T2 sequence (P17931 whole entry): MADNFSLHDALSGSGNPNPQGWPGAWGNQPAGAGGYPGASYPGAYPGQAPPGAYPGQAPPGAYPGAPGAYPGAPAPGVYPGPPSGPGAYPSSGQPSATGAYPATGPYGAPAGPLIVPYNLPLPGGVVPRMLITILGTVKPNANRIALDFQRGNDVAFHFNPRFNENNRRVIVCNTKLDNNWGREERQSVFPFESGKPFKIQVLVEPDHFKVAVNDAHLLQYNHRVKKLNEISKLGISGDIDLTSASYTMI
Nature of the experiment: Antibody binning assays (competition for binding to Gal3). The conditions noted are these: binning per Examples 3 and 18. The method, then:
To determine whether Gal3-binding antibodies with Gal3-INSR blocking activity bind to the same or overlapping regions of the Gal3 molecule, antibody binning assays were performed to assess the ability of antibodies to simultaneously bind Gal3. Amine-reactive probes were loaded onto a Gator biosensor (Probe Life, Palo Alto, Calif.), equilibrated in dH20 for 60 seconds, dipped into 100 μl EDC 0.2M/NHS 0.05M activation buffer for 30 seconds, then dipped into a solution of […] human Gal3-His in 10 mM NaOAc buffer, pH 5 until binding was saturated, and quenched in 1 M ethanolamine pH 8.5 for 300 seconds. Following Gal3-His loading, tips were dipped in 20 μg/mL saturating antibody, then successively dipped into 5 μg/mL competing antibody.
The epitope binning assay was done in a sandwich format on the high-throughput SPR-based Carterra LSA unit (CarterraBio, Salt Lake City, Utah). First, the purified antibodies were diluted to 10 μg/ml concentration in 10 mM NaOAc (pH 5.0) and then were covalently coupled via amine group to HC200M chip activated by EDC and S-NHS to immobilize antibodies to different positions of a 384-spot array. One hundred thirty-eight binning cycles were run on the array of immobilized antibodies. In each cycle, first, human Gal3 (AcroBio GA3-H5129) was injected over the entire array to bind to different antibodies (primary antibody), followed by one antibody (secondary antibody) selected among the panel of 150 anti-GAL3 antibodies tested. At the end of each cycle, the array was regenerated by 10 mM Glycine (pH 2.0) to remove bound antigen and secondary antibody from the array. The data analysis was done using the Epitope software by CarterraBio.

Experiment [3] addresses T3, interaction of Gal3 and INSR (Homo sapiens, UniProt P17931).
T3 construct: 6-histidine tag (linker-spaced); purchased Acro Biosystems (Gal3); Sino Biological (INSR) GA3-H5129; 11086-H08H
Nature of the experiment: ELISA of blocking of Gal3-INSR association by Gal3-binding antibodies. The procedure: Positively scoring wells were evaluated for the ability to block association of Gal3 and INSR. To identify Gal3-targeted antibodies with the ability to block the interaction of Gal3 and INSR, purified Gal3 and INSR proteins were incubated in the presence of Gal3-immunization hybridoma supernatants described above, or without antibody, and protein interaction was evaluated by ELISA. Human Galectin-3 protein (Acro Biosystems, GA3-H5129) was diluted in PBS (Corning, 21-030-CM) to a concentration of 3 μg/ml and added to the wells of a 96-well ELISA plate (Thermo Fisher, 44-2404-21). After incubating the plate at 4° C. overnight, the plate was washed three times with PBST (PBS with 0.05% Tween 20 [VWR, 0777]). The plate was then blocked for an hour with 2% BSA (EMD Millipore, 126609) in PBST at room temperature with gentle rocking. Thereafter, the 2% BSA in PBST was discarded and antibody or inhibitor (3-fold dilutions beginning at 20 μg/ml, 60 μg/ml, or 180 μM) in 2% BSA in PBST was added to the wells. Afterwards, 6 μg/ml of human Insulin Receptor (Sino Biological, 11086-H08H) in 2% BSA in PBST was added to the antibody or inhibitor in the wells in a 1:1 ratio. The plate was incubated for an hour at room temperature with gentle rocking. Thereafter, the plate was washed three times with PBST, and 0.3 μg/ml of human INSR Biotinylated Antibody (R&D Systems, BAF1544) in 2% BSA in PBST was added to the wells. The plate was incubated for an hour with gentle rocking and then washed three times with PBST. Avidin-HRP (1:2000) was then added to the wells. The plate was incubated at room temperature for an hour with gentle rocking and then washed three times with PBST. TMB substrate (Thermo Scientific, 34029) was then added to each well. The reaction was stopped with 1M HCl (JT Baker, 5620-02) and read using a plate reader (Molecular Devices) at absorbance of 450 nm.

Positions count from the first letter of the chain named. Numbers in names are those of the source.

T3 sequence (P17931 2-250 limits assumed): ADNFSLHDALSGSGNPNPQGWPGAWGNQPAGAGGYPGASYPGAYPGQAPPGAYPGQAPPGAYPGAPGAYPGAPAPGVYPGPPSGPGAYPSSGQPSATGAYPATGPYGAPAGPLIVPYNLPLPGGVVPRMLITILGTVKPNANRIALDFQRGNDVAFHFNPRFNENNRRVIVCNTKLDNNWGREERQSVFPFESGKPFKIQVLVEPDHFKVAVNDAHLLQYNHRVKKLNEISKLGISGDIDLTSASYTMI

B1: F846C.1F5: anti-Gal3 antibody (antibody, V domains shown)
VH: QIQLVQSGPELKKPGETVKISCKASGYTFTNYGMNWVKQAPGKGLKWMGWINTYTGEPSYADDFKGRFAFSLETSASTAYLQINNLKNEDMATYFCARWGGYDGDYYAMDYWGQGTSVTVSS
VL: NIMMTQSPSSLAVSAGEKVTMSCKSSQSVLYSSNQKNYLAWYQQKPGQSPKLLIYWASTRESGVPDRFTGSGSGTDFTLTISSVQPEDLAVYYCHQYLSSLTFGAGTKLELK
Take B1: in experiment [1], the “binding to Gal3 Peptide 6” value was “bind and bound”. Also, the “binding to Gal3 Peptide 17” value in experiment [2] (Peptide 17 (SEQ ID NO: 19)) is recorded as “bind”.

B2: 12G5.D7: anti-Gal3 monoclonal antibody (antibody, V domains shown)
VH: QVQLKQSGAELVRPGASVKLSCKASGYTFTDYYINWVKQRPGQGLEWIARIYPGTGNTDYNEKFKGRATLTAEKSSSTAYMQLSSLTSEDSAVYFCARFAYYYGSGGYFDYWGHGTTLTVSS
VL: DILMTQSPSSMSVSLGDTVSITCHASQGINSNMGWLQQKPGKSFKGLIYHATNLEDGVPSRFSGSGSGADYSLTISSLESEDFADYYCVQYAQFPPTFGSGTKLEIK
Regarding B2, the “epitope bin (competitive binding to Gal3)” value (“epitope bin” for short) with human Gal3 is listed as “bin 10”. Also, the “Gal3-INSR blocking activity (in words)” value in experiment [3] is “poorly block”.

B3: 24D12.2H9: anti-Gal3 monoclonal antibody (antibody, V domains shown)
VH: QVQLKQSGPGLVQPSQSLSITCTVSGFSLTSYGVHWVRQAPGKGLEWLGVIWSGGSTDYNAAFMSRLSISKDNSKSQVFFKMNSLQADDTAIYYCAKSPDGYDVAWFGYWGQGTLVTVSA
VL: DIVMTQSHKFMSTSVGDRVSITCKASQDVRTAVAWYQQKPGQSPKLLIYWASTRHTGVPDRFTGSGSGTDFTLTLSNVQSEDLADYFCQQYSSYPWTFGGGTKLEIK
For the molecule B3, the “Gal3-INSR blocking activity (in words)” value in experiment [3] is recorded as “poorly block”.

B4: 13G4.2F8: anti-Gal3 monoclonal antibody (antibody, V domains shown)
VH: QVQLQQPGAELVKPGASVKLSCKASGYTFTSYWMHWVKQRPGQGLEWIGMIHPNSGSTDYNEKFKNKATLNVDKSSSTAYIQLSSLTSEDSAVYYCTRWGIYYYARDYWGQGTTLTVSS
VL: DIVMTQSQKFMSTSVGERVSITCKASQNVGTNVAWYQQKAGQSLELLIYGASNRHTGVPDRFTGSGSGTDFTLTITNVQSEDMTNYFCEQYSNFPLTFGAGTKLELK
Regarding B4, the “Gal3-INSR blocking activity (in words)” value in experiment [3] is “poorly block”.

B5: F846TC.14A2: anti-Gal3 antibody (antibody, V domains shown)
VH: QIQLVQSGPELKKPGETVKISCKASGYTFTNYGMNWVKQAPGKGLKWMGWINTYTGEPTYAGDLKGRFAFSLETSASTAYLQINNLKNEDTATYFCVRYTMDYWGQGTSVTVSS
VL: QAVVTQESALTTSPGETVTLTCRSSTGAVTTSNYANWVQEKPDHLFTGLIGGINNRVPGVPARFSGSLIGDKAALTITGAQTEDEAIYFCALWYSNHWVFGGGTKLTVL
As to B5, in experiment [1], the “binding to Gal3 Peptide 1” value was “bind and bound”; the “binding to Gal3 Peptide 7” value was “bind and bound”. For the same molecule, the “binding to Gal3 Peptide 8” value in experiment [2] (Peptide 8 (SEQ ID NO: 10)) is “bind”.

B6: 2D10.2B2: anti-Gal3 monoclonal antibody (antibody, V domains shown)
VH: QVQLQQSGPELVKPGASVKISCKASGYTFTDYYINWVKQRPGQGLEWIGWIYPGSNDTKYNEKFKGKATLTVDTSSSTAYMQLGSLTSEDSAVYFCANYFGCSGWFFDVWGTGTTVTVSS
VL: DIVMTQAAFSNPVTLGTSASISCRSSKSLLHSDGITYLYWYLQRPGQSPQLLIYRMSNLASGVPDRFSGSGSGTDFTLRISRVEAEDVGVYYCAQMIEFPLTFGAGTILELK
Take B6: in experiment [1], the “binding to Gal3 Peptide 1” value is recorded as “bound”; the “binding to Gal3 Peptide 6” value was “bind and bound”; the “binding to Gal3 Peptide 7” value is given as “bound”. In addition, the “epitope bin” value with human Gal3 was “bin 3”.

B7: 4A11.2B5: anti-Gal3 monoclonal antibody (antibody, V domains shown)
VH: QVQLQQSGPELVKPGASVKISCKASGYSFTNYYIHWVKQRPGQGLEWIGWIYPGSGNTNYNEKFKGKATLTADTSSSTTNMQLSSLTSEDSAVYYCSTAPGGFDVWGSGTTVTVSS
VL: B6 VL with I97L, I108K
Regarding B7, the “binding to Gal3 Peptide 6” value in experiment [1] is “bind and bound”. The “epitope bin” value in the experiment with human Gal3 is reported as “bin 3”.
